# Assay results reported in patent US20040077572.
# Test system: Sleeping Beauty transposase SB10 (synthetic (reconstructed salmonid))
# Test: cell_activity
substance,measurement,setting,value
pT2/SV40Neo transposon,activity,just under four-fold over pT/SV40neo,4 fold
TANNNNCAGTTGAAGTCGGAAGTTTACATACACTTAAG (double strand) [TAN4Lo transposon],activity,relative transposition in HeLa,30%
RoRi-RiRo transposon,activity,"relative excision, transposition 29%",43%
LoLi-LiLo transposon,activity,"relative excision, transposition 101%",95%
LoLo-RiRo transposon,activity,"relative excision, transposition 45%",46%
LoLo-RoRo transposon,activity,transposition reduced nearly 85%,15%
Lo(AAG) transposon,activity,relative excision,11%
